# B1: S25E: FoxM1 phosphorylated point mutant of the S25 residue, expressed by lentivirus in A549 cells (protein, listed as Homo sapiens)
# chain: MKTSPRRPLILKRRRLPLPVQNAPEETSEEEPKRSPAQQESNQAEASKEVAESNSCKFPAGIKIINHPTMPNTQVVAIPNNANIHSIITALTAKGKESGSSGPNKFILISCGGAPTQPPGLRPQTQTSYDAKRTEVTLETLGPKPAARDVNLPRPPGALCEQKRETCDGEAAGCTINNSLSNIQWLRKMSSDGLGSRSIKQEMEEKENCHLEQRQVKVEEPSRPSASWQNSVSERPPYSYMAMIQFAINSTERKRMTLKDIYTWIEDHFPYFKHIAKPGWKNSIRHNLSLHDMFVRETSANGKVSFWTIHPSANRYLTLDQVFKQQQKRPNPELRRNMTIKTELPLGARRKMKPLLPRVSSYLVPIQFPVNQSLVLQPSVKVPLPLAASLMSSELARHSKRVRIAPKVLLAEEGIAPLSSAGPGKEEKLLFGEGFSPLLPVQTIKEEEIQPGEEMPHLARPIKVESPPLEEWPSPAPSFKEESSHSWEDSSQSPTPRPKKSYSGLRSPTRCVSEMLVIQHRERRERSRSRRKQHLLPPCVDEPELLFSEGPSTSRWAAELPFPADSSDPASQLSYSQEVGGPFKTPIKETLPISSTPSKSVLPRTPESWRLTPPAKVGGLDFSPVQTSQGASDPLPDPLGLMDLSTTPLQSAPPLESPQRLLSSEPLDLISVPFGNSSPSDIDVPKPGSPEPQVSGLAANRSLTEGLVLDTMNDSLSKILLDISFPGLDEDPLGPDNINWSQFIPELQ
# Tested on: lung tissues
# Test: EMT marker and PD-L1 protein levels in lysed lung tissue of injected mice
# Format: in vivo
# Protocol: Next, when the lung tissues were lysed and the protein levels of epithelial-mesenchymal transition markers were measured, the protein levels of the mesenchymal marker N-cadherin increased in the FoxM1 phosphorylated point mutant experimental group, while the levels of E-cadherin decreased. In addition, the expression of PD-L1, which was known to be involved in immune evasion and to enhance the tumorigenic potential of cancer cells, was also examined in each experimental group. […] Moreover, the consistent results were confirmed not only at the protein levels but also at the mRNA levels (FIG. 5E).
molecule,measurement,value
B1,expression of PD-L1 in lung tissue,elevated
same,protein level of E-cadherin in lung tissue,decreased
same,protein level of N-cadherin in lung tissue,increased

# — US20250340881A1, “PHARMACEUTICAL COMPOSITION FOR TREATING CANCER COMPRISING FOXM1 MUTANT OR FOXM1 SHRNA” (Industry-University Cooperation Foundation Hanyang …, priority 2022, published 2025)
